The source of these data is patent publication US10702592B2, “Peptides and combination of peptides for use in immunotherapy against NHL and other cancers” (Immatics Biotechnologies GmbH, priority 2016, dated 2020).

The test has as its target HLA-A*02:01 (Homo sapiens, UniProt P04439, D140Y/D185E/D98H/E176V/E277Q/G131W/G231S/I119V/I121R/I166T/I218V/L300P/L318F/N151K/N90K/P208A/P217A/Q86G/Q94H/R138H/R169H/T345S). Nature of the test: MHC binding assay (UV-ligand exchange, beta2m ELISA). The conditions noted are these: binding to HLA-A*02:01, UV-ligand exchange. The method in brief:
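Binding capacity is expressed as the yield of UV-mediated ligand exchange, reflecting how well each peptide stabilizes peptide-receptive MHC. Stabilized complexes are read out by anti-β2m HRP ELISA (450 nm) after streptavidin capture, with refolded MLA-001 monomer standards for quantitation.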

Turning to “173 (VILDSVASV; listed as Homo sapiens) [compound 173]”, the “Peptide exchange (MHC class I binding score, peptide exchange yield)” value (“Peptide exchange” below) is on record as ““++++” (≥75% = ++++)”.
As for “247 (KVLEMETTV; listed as Homo sapiens) [compound 247]”, the entry is ““+++” (≥50 = +++)”; as for “145 (GLLHEVVSL; listed as Homo sapiens) [compound 145]”, ““+++” (≥50 = +++)”.
For “303 (FVWEASHYL; listed as Homo sapiens) [compound 303]”, the “Peptide exchange” value is recorded as ““++++” (≥75% = ++++)”.
As for “204 (RLCDIVVNV; listed as Homo sapiens) [compound 204]”, the entry is ““++” (≥20% = ++)”.
With “227 (IIAEGIPEA; listed as Homo sapiens) [compound 227]” the entry was ““++” (≥20% = ++)”.
With “310 (VMAEAPPGV; listed as Homo sapiens) [compound 310]” the entry was ““+++” (≥50 = +++)”; with “279 (NLAGENILNPL; listed as Homo sapiens) [compound 279]”, ““+++” (≥50 = +++)”; with “220 (FLAEAPTAL; listed as Homo sapiens) [compound 220]”, ““++” (≥20% = ++)”.
Take “224 (FLSPLLPLL; listed as Homo sapiens) [compound 224]”: the “Peptide exchange” value is given as ““++” (≥20% = ++)”.
Consider “230 (IMDDDSYGV; listed as Homo sapiens) [compound 230]”, for which the “Peptide exchange” value is listed as ““++” (≥20% = ++)”.
Take “206 (SAVSGQWEV; listed as Homo sapiens) [compound 206]”: the “Peptide exchange” value is on record as ““++” (≥20% = ++)”.
With “143 (TLHAVDVTL; listed as Homo sapiens) [compound 143]” the entry was ““+++” (≥50 = +++)”; with “283 (ALMPVTPQA; listed as Homo sapiens) [compound 283]”, ““+++” (≥50 = +++)”.
On to “243 (GLPDLDIYL; listed as Homo sapiens) [compound 243]”, for which the “Peptide exchange” value is ““++++” (≥75% = ++++)”.
With “239 (VLIDDTVLL; listed as Homo sapiens) [compound 239]” the entry was ““+++” (≥50 = +++)”; with “144 (GLITQVDKL; listed as Homo sapiens) [compound 144]”, ““+++” (≥50 = +++)”; with “286 (HLTEDTPKV; listed as Homo sapiens) [compound 286]”, ““+++” (≥50 = +++)”.
With “207 (GLVGLLEQA; listed as Homo sapiens) [compound 207]” the entry was ““++++” (≥75% = ++++)”; with “178 (YVLQGEFFL; listed as Homo sapiens) [compound 178]”, ““+++” (≥50 = +++)”.
In the case of “209 (FLLDTISGL; listed as Homo sapiens) [compound 209]”, the “Peptide exchange” value is ““+++” (≥50 = +++)”.
As for “172 (TLQDSLEFI; listed as Homo sapiens) [compound 172]”, the entry is ““++++” (≥75% = ++++)”.
Consider “290 (IASPVIAAV; listed as Homo sapiens) [compound 290]”, for which the “Peptide exchange” value is on record as ““+++” (≥50 = +++)”.
As for “187 (FLNSFVFKM; listed as Homo sapiens) [compound 187]”, the entry is ““++” (≥20% = ++)”; as for “141 (FLGELTLQL; listed as Homo sapiens) [compound 141]”, ““+++” (≥50 = +++)”; as for “64 (FLVEVSNDV; listed as Homo sapiens) [compound 64]”, ““++++” (≥75% = ++++)”.
As for “234 (NLQRTVVTV; listed as Homo sapiens) [compound 234]”, the entry is ““++” (≥20% = ++)”; as for “188 (GLEDEMYEV; listed as Homo sapiens) [compound 188]”, ““++” (≥20% = ++)”; as for “82 (FLIDGSSSV; listed as Homo sapiens) [compound 82]”, ““+++” (≥50 = +++)”.
With “263 (GLMDNEIKV; listed as Homo sapiens) [compound 263]” the entry was ““+++” (≥50 = +++)”; with “120 (VLLGTTWAL; listed as Homo sapiens) [compound 120]”, ““+++” (≥50 = +++)”.
For the substance “249 (VLLESLVEI; listed as Homo sapiens) [compound 249]”, the “Peptide exchange” value is ““++++” (≥75% = ++++)”.
For the substance “134 (ALGRLGILSV; listed as Homo sapiens) [compound 134]”, the “Peptide exchange” value is given as ““+++” (≥50 = +++)”.
As for “18 (KLTDQPPLV; listed as Homo sapiens) [compound 18]”, the entry is ““+++” (≥50 = +++)”; as for “259 (TVLDGLEFKV; listed as Homo sapiens) [compound 259]”, ““++++” (≥75% = ++++)”.
On to “135 (ALTGLQFQL; listed as Homo sapiens) [compound 135]”, for which the “Peptide exchange” value is given as ““+++” (≥50 = +++)”.
On to “185 (FIAQLNNVEL; listed as Homo sapiens) [compound 185]”, for which the “Peptide exchange” value is ““+” (≥10% = +)”.
As for “97 (LLNFSPGNL; listed as Homo sapiens) [compound 97]”, the entry is ““+” (≥10% = +)”; as for “212 (FLIGQGAHV; listed as Homo sapiens) [compound 212]”, ““+++” (≥50 = +++)”.
As for “202 (ALAAGGYDV; listed as Homo sapiens) [compound 202]”, the “Peptide exchange” value is reported as ““++” (≥20% = ++)”.
With “242 (GILDFZVFL; listed as Homo sapiens) [compound 242]” the entry was ““++++” (≥75% = ++++)”.
With “129 (SLFEASQQL; listed as Homo sapiens) [compound 129]” the entry was ““+++” (≥50 = +++)”.
As for “93 (KLLGSLQLL; listed as Homo sapiens) [compound 93]”, the entry is ““++++” (≥75% = ++++)”; as for “248 (NLLEQFILL; listed as Homo sapiens) [compound 248]”, ““+++” (≥50 = +++)”; as for “123 (ALLSAFVQL; listed as Homo sapiens) [compound 123]”, ““+++” (≥50 = +++)”.
Regarding “240 (ALVPTPALFYL; listed as Homo sapiens) [compound 240]”, the “Peptide exchange” value is on record as ““+++” (≥50 = +++)”.
As for “226 (GVIDPVPEV; listed as Homo sapiens) [compound 226]”, the entry is ““++” (≥20% = ++)”; as for “197 (YLLTDNVVKL; listed as Homo sapiens) [compound 197]”, ““++” (≥20% = ++)”.
As for “117 (VLATILAQL; listed as Homo sapiens) [compound 117]”, the entry is ““++++” (≥75% = ++++)”; as for “296 (FILEPLYKI; listed as Homo sapiens) [compound 296]”, ““++++” (≥75% = ++++)”; as for “112 (FLAILPEEV; listed as Homo sapiens) [compound 112]”, ““+++” (≥50 = +++)”.
As for “114 (GLSDISPST; listed as Homo sapiens) [compound 114]”, the “Peptide exchange” value is ““++” (≥20% = ++)”.
As for “133 (ALEELTGFREL; listed as Homo sapiens) [compound 133]”, the entry is ““++” (≥20% = ++)”.
As for “55 (ILVEVDLVQA; listed as Homo sapiens) [compound 55]”, the entry is ““++++” (≥75% = ++++)”; as for “87 (GLFARIIMI; listed as Homo sapiens) [compound 87]”, ““++” (≥20% = ++)”; as for “219 (ALLELENSV; listed as Homo sapiens) [compound 219]”, ““++” (≥20% = ++)”.
With “65 (NLTDVSPDL; listed as Homo sapiens) [compound 65]” the entry was ““+++” (≥50 = +++)”; with “252 (YLGDLIMAL; listed as Homo sapiens) [compound 252]”, ““+++” (≥50 = +++)”.
On to “232 (KVMEGTVAA; listed as Homo sapiens) [compound 232]”, for which the “Peptide exchange” value is ““++” (≥20% = ++)”.
With “75 (AALKYIPSV; listed as Homo sapiens) [compound 75]” the entry was ““+++” (≥50 = +++)”; with “309 (SLSFVSPSL; listed as Homo sapiens) [compound 309]”, ““+++” (≥50 = +++)”.
